# Experimental data taken from patent publication US20120263732A1, “CD40 ANTIBODY FORMULATION AND METHODS” (PFIZER INC., priority 2003, published 2012).
# Read-outs that look alike come from different tables or passages of the source.
# Tests used:
# [1] = test system: lymph node cells obtained from cancer patients; assay: Proliferation of cancer patients' lymph node cells stimulated with autologous tumor cells (3H-thymidine); format: cell-based, human; conditions: antibody 1 μg/mL (6.7 nM); 3H-thymidine 96 hours later
# Text: Effects of a human anti-CD40 antibody (21.4.1) on lymph node cells obtained from cancer patients stimulated with autologous tumor cells was examined.
# Lymph node cells and tumors were collected from patients with renal cell carcinoma, non-small cell lung cancer, transitional cell carcinoma of the bladder, colon cancer, prostate cancer, and head and neck cancer. The lymph node cells were placed into culture together with irradiated collagenase treated tumors (recovered from the same patient) in the presence or absence of 21.4.1 (1 μg/mL; 6.7 nM). Proliferation was assessed using ^3H-thymidine 96 hours later. The number of INFγ producing cells was assessed by ELISPOT, following restimulation.
# [2] = target: T1, CD40 receptors on human leukocytes (Homo sapiens, UniProt P25942); assay: 125I-21.4.1 binding to CD40 receptors on human leukocytes; conditions: 500-fold excess unlabeled 21.4.1; total % specific binding minus % binding to FcR
# T1 construct: Human leukocytes from normal donors or cynomolgus leukocytes were isolated from whole blood; endogenous in cells; host or cells: human peripheral blood leukocytes from normal donors
# Procedure: (§1) The binding of 21.4.1 to Fc receptors (FcR) on human or cynomolgus peripheral blood leukocytes was determined by using ^125I-21.4.1 and a human IgG1 control mAb. Human leukocytes from normal donors or cynomolgus leukocytes were isolated from whole blood using plasma gel and washed thoroughly to allow dissociation of receptor-bound serum immunoglobulins. Centrifugation through a sucrose cushion was used to separate cell-bound and free antibodies. Studies were performed at 4° C. in the presence of sodium azide to prevent receptor internalization.
# (§2) 21.4.1 was tested for specific binding to FcR by using excess unlabeled human IgG2 isotype matched antibody as a competitor. ^125I-21.4.1 specific binding to FcR on human leukocytes (n=5 donors) was −1.0±8.5%, and specific binding to FcR on cynomolgus leukocytes (n=4) was 15±13%. […] The specific binding of the IgG1 control antibody to FcR on human and cynomolgus leukocytes accounted for 56% and 51% of the total bound radioactivity, respectively.
# [3] = test system: CD40 receptors on cynomolgus leukocytes; assay: 125I-21.4.1 binding to CD40 receptors on cynomolgus leukocytes; conditions: 500-fold excess unlabeled 21.4.1; total % specific binding minus % binding to FcR
# Procedure: as §1, §2
# [4] = test system: CD40(−) erythroleukemic tumor, K562; assay: CD40(−) K562 erythroleukemic tumor growth in SCID-beige mice; format: in vivo, human tumor in SCID-beige mice
# Procedure: (§3) The effects of a CD40 antibody (21.4.1) on the growth of CD40(−) tumors (e.g., erythroleukemia and colon carcinoma) were examined. In particular, K562 tumors were chosen to assess the efficacy of 21.4.1 against a CD40(−) low immunogenic (class I and II negative) tumor.
# (§4) SCID-beige mice were injected SC with the CD40(−) erythroleukemic tumor, K562 (ATCC CCL-243) alone or in the presence of human peripheral blood T cells and DCs. Animals received a single IP injection of 21.4.1 either at the time of tumor injection or 5 days later using various dose levels.
# [5] = test system: CD40(−) colon carcinoma, Lovo; assay: CD40(−) Lovo colon carcinoma growth in SCID-beige mice; format: in vivo, human tumor in SCID-beige mice; conditions: in the absence of immune cells
# Procedure: as §3, §4
# The amount of 21.4.1 to cause a 50% inhibition of tumor growth was 0.005 mg/kg corresponding to a Cmax serum concentration of 0.05 μg/mL. […] The results were identical when 21.4.1 was administered on Day 0 or Day +5 relative to tumor challenge. The growth of these CD40(−) tumors was not inhibited by 21.4.1 in the absence of immune cells.
# breast tumor, BT 474 = assay: Established BT 474 breast tumors: antibody and/or cisplatin; format: in vivo, human tumor in SCID-beige mice; conditions: single IP injection once tumors reached 200 mm^2; antibody 1 mg/kg, cisplatin 2.5 mg/kg; Day 84
# Procedure: The therapeutic effects of an anti-CD40 antibody (21.4.1) in preventing the growth of human breast tumors alone and in the presence of cisplatin was examined.
# SCID-beige mice were injected SC with the breast tumor, BT 474. The antibody (1 mg/kg, IP) and/or cisplatin (2.5 mg/kg, IP) were administered as a single injection once tumors reached a size of 200 mm^2. Tumor growth was measured on Day 84 after challenge.
# [6] = Multiple-dose IV pharmacokinetics; format: in vivo, cynomolgus monkeys
# Procedure: In a multiple-dose study, 21.4.1 was administered intravenously to cynomolgus monkeys (2/sex/dose) at doses of 0.3, 1.0, and 10 mg/kg on Days 1, 3, 5, 7, and 9 for 5 total doses. Blood was collected on Days 1 and 9 before dosing and 0.5, 6, and 24 hours after dosing and before dosing and 0.5 hour after dosing on Day 5 to measure serum drug concentrations. Systemic exposure to 21.4.1, as assessed by mean Cmax and mean AUG(0-24), increased with increasing dose from 0.3 to 10 mg/kg on both Day 1 and Day 9 (Table 2). Similar exposures (mean Cmax and mean AUC) were observed on Days 1 and 9 in the 0.3 and 1 mg/kg dose groups. […] Gender-related differences in exposure were not observed.
# [7] = cynomolgus monkey, in vivo
# Procedure: The pharmacokinetic properties of an anti-CD40 antibody (21.4.1) were examined in cynomolgus monkeys following intravenous (IV) administration of a single dose of 1, 3, 5 or 10 mg/kg.
# [8] = mouse, in vivo
# [9] = 0.3 mg/kg IV every other day, Day 1
# [10] = 0.3 mg/kg IV every other day, Day 9
# [11] = 1.0 mg/kg IV every other day, Day 1
# [12] = 1.0 mg/kg IV every other day, Day 9
# [13] = 10 mg/kg IV every other day, Day 1
# [14] = 10 mg/kg IV every other day, Day 9
# T1 sequence (P25942 21-277): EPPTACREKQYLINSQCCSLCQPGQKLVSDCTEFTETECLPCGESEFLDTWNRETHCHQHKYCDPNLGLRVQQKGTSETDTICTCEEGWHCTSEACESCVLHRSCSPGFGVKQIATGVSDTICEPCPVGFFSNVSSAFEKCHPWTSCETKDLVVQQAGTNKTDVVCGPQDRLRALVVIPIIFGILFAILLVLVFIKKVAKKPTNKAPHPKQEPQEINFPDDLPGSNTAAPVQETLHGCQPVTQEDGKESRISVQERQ
substance,measurement,setting,value
21.4.1: human agonist anti-CD40 antibody; amino acid sequences SEQ ID NOs:5-8; hybridoma deposit PTA-3605,"proliferation of lymph node cells in response to tumor antigen, enhancement",[1],3-4 fold
same,specific binding to CD40 receptors on human leukocytes,[2],49%
same,specific binding to CD40 receptors on cynomolgus leukocytes,[3],67%
same,amount to cause a 50% inhibition of tumor growth (IC50),"[4]; K562 with human T cells and DC, single IP injection, Day 21",0.005 mg/kg
same,growth of K562 tumor,[4]; in the absence of immune cells,not inhibited
same,growth of Lovo tumor,[5],not inhibited
same,"tumor growth, single agent","breast tumor, BT 474",prevented tumor growth
same,AUC(0-24),[6]; [9],47.7 ± 15.4 µg·h/mL
same,Cmax,[6]; [9],4.67 ± 1.71 µg/mL
same,Tmax,[6]; [9],1.9 ± 2.8 h
same,AUC(0-24),[6]; [10],55.6 ± 47.1 µg·h/mL
same,Cmax,[6]; [10],7.4 ± 2.9 µg/mL
same,Tmax,[6]; [10],0.5 ± 0.0 h
same,AUC(0-24),[6]; [11],387 ± 59 µg·h/mL
same,Cmax,[6]; [11],26.7 ± 5.1 µg/mL
same,Tmax,[6]; [11],0.5 ± 0.0 h
same,AUC(0-24),[6]; [12],219 ± 151 µg·h/mL
same,Cmax,[6]; [12],12.3 ± 9.1 µg/mL
same,Tmax,[6]; [12],1.9 ± 2.8 h
same,AUC(0-24),[6]; [13],4130 ± 600 µg·h/mL
same,Cmax,[6]; [13],226 ± 29 µg/mL
same,Tmax,[6]; [13],1.9 ± 2.8 h
same,AUC(0-24),[6]; [14],11400 ± 2100 µg·h/mL
same,Cmax,[6]; [14],577 ± 163 µg/mL
same,Tmax,[6]; [14],3.3 ± 3.2 h
same,increase of mean AUG(0-24) from Day 1 to Day 9,[6]; 10 mg/kg dose group,2.8 fold
same,increase of mean Cmax from Day 1 to Day 9,[6]; 10 mg/kg dose group,2.6 fold
same,duration of exposure of ≧0.1 μg/mL,[7],4 days
same,"volume of distribution at steady state, mean of different doses",[7]; iv,0.0575 L/kg
same,AUC(0-∞),"[7]; iv, 1 mg/kg",298 µg·h/mL
same,CL,"[7]; iv, 1 mg/kg",3.81 mL/h/kg
same,Cmax,"[7]; iv, 1 mg/kg",~20 µg/mL
same,Vdss,"[7]; iv, 1 mg/kg",0.0757 L/kg
same,t1/2,"[7]; iv, 1 mg/kg",0.75 days
same,AUC(0-∞),"[7]; iv, 3 mg/kg",2460 µg·h/mL
same,CL,"[7]; iv, 3 mg/kg",1.28 mL/h/kg
same,Vdss,"[7]; iv, 3 mg/kg",0.0459 L/kg
same,t1/2,"[7]; iv, 3 mg/kg",1.4 days
same,AUC(0-∞),"[7]; iv, 5 mg/kg",4790 µg·h/mL
same,CL,"[7]; iv, 5 mg/kg",1.04 mL/h/kg
same,Vdss,"[7]; iv, 5 mg/kg",0.0488 L/kg
same,t1/2,"[7]; iv, 5 mg/kg",1.4 days
same,AUC(0-∞),"[7]; iv, 10 mg/kg",12500 µg·h/mL
same,CL,"[7]; iv, 10 mg/kg",0.798 mL/h/kg
same,Vdss,"[7]; iv, 10 mg/kg",0.0529 L/kg
same,"apparent mean elimination half-life, range over doses","[7]; iv, 10 mg/kg",0.75 to 2.0 days
same,"systemic clearance, range over doses","[7]; iv, 10 mg/kg",19.2 to 91.4 mL/day/kg
same,t1/2,"[7]; iv, 10 mg/kg",2.0 days
same,"volume of distribution at steady state, range over doses","[7]; iv, 10 mg/kg",0.0459 to 0.0757 L/kg
same,T1/2,[8],> 30 days
